Source: patent US7943358B2, “Polymerase enhancing factor (PEF) extracts, PEF protein complexes, isolated PEF protein, and methods for purifying and identifying” (Agilent Technologies, Inc., priority 1997, dated 2011)

Key:
Type in all cases: biochemical
[1] = Pi detection after reaction with dUTP (method of Heinonen and Lahti); conditions: 900 or 1800 ng PEF, 5 mM dUTP, 1 hour at 72° C.
Method: We tested whether inorganic pyrophosphate (PPi) or inorganic phosphate (Pi) was generated during the PEF-catalyzed conversion of dUTP to dUMP (FIG. 16). To assess whether Pi was produced, 900 or 1800 ng of PEF was incubated in the presence of 5 mM dUTP in 1× cloned Pfu polymerase buffer for 1 hour at 72° C. The reaction mixture was subsequently analyzed for the presence of Pi using the method of Heinonen and Lahti (Heinonen; J. K. and Lahti, R. J. (1981) Anal. Biochem. 113: 313-317). […] One hundred percent (100%) conversion corresponds to the production of 500 nmol of Pi, if Pi is a product of the reaction. […] The assay for Pi was sensitive enough to detect as little as about 50 nmoles of Pi.

Pfu DNA polymerase = biological target: T1, Pfu DNA polymerase (Pyrococcus furiosus, UniProt P61875); assay: 0.9 kb α1-antitrypsin PCR in absence or presence of dUTP
T1 sequence (P61875 1-775): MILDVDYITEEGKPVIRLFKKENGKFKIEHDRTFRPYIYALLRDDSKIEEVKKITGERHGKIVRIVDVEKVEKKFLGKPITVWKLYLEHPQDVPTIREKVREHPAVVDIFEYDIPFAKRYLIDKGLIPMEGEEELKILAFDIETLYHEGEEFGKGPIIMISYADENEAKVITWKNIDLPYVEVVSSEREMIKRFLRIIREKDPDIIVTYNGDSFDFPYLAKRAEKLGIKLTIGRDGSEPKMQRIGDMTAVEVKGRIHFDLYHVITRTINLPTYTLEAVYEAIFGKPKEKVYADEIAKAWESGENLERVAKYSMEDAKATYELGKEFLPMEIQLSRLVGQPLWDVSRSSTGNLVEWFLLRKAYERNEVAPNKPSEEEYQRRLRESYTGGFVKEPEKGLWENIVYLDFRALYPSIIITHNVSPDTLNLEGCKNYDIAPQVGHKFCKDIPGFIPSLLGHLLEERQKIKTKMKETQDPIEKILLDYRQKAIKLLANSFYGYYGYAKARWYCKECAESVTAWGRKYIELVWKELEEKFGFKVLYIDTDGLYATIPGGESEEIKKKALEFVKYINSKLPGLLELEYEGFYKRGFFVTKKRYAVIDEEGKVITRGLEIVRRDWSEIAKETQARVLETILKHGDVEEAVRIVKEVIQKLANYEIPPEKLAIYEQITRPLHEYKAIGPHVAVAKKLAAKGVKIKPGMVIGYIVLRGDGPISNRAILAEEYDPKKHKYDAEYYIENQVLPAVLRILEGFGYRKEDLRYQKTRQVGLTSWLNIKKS
Method: A relatively small (0.9 kb) fragment of the human α1-antitrypsin gene was amplified in the absence or presence of dUTP. PCR reaction mixtures contained the following (in a 100 μl volume): 1× Cloned Pfu polymerase buffer; 200 μM each, dCTP, dGTP, dATP; 200 ng oligo F91-23 (100 ng/μl); 200 ng oligo R980-23 (100 ng/μl); 125 ng Human genomic DNA; 2.5 units Pfu DNA polymerase; 200 μM total of (dTTP and dUTP) or (dTTP+PEF generated dUMP).
PCR cycling was carried out as follows: 95° C. for 1 minute (1 cycle); 95° C. for 1 minute—58° C. for 1 minute—72° C. for 2 minutes (30 cycles).
Seven ng of PEF can reverse the inhibition caused by as much as 20 μM dUTP (data not shown). The preferred amount of PEF or P45 used in a particular reaction can be optimized according to the principles provided here or by methods for quantifying amplification reactions known in the art.

[2] = biological target: T2, cloned Pfu DNA polymerase (Pyrococcus furiosus, UniProt P61875); assay: 6.2 kb primer-template PCR enhancing assay
T2 sequence (P61875 1-775): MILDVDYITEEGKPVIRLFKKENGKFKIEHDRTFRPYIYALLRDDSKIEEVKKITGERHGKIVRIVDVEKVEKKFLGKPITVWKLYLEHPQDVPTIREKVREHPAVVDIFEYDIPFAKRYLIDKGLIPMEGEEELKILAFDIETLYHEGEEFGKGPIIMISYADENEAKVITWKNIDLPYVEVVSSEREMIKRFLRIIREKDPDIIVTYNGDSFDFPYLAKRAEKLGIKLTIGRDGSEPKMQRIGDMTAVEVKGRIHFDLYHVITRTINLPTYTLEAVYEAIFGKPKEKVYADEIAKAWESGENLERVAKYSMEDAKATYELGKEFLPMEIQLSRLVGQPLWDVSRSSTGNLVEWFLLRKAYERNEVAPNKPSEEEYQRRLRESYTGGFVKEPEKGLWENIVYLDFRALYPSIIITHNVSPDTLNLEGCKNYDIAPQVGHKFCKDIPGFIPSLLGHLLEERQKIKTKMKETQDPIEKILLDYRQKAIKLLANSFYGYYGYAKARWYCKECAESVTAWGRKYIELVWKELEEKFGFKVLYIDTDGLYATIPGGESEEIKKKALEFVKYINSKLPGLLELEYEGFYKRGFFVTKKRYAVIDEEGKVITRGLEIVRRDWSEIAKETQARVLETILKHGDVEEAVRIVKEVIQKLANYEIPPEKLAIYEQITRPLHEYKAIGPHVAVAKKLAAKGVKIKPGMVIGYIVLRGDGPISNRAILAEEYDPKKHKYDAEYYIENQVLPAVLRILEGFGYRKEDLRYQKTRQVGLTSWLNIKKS
Method: One embodiment of an assay used to screen for PEFs, in this case from Pyrococcus furiosus, involved amplifying a 6.2 kb target from transgenic mouse DNA (6.2 kb primer-template assay). A master PCR cocktail was prepared consisting of: 200 μM each dNTP, 2 μg/ml primer F432-21 (5′-CTA-TTG-AGT-ACG-AAC-GCC-ATC) (SEQ ID NO.: 62), 2 μg/ml primer R6656-20 (GTC-ACG-CTT-GCT-CCA-CTC-CG) (SEQ ID NO: 63), 2.5 μg/ml λAA742 DNA (transgenic mouse DNA having 40 copies of a lambda phage DNA shuttle vector), 1× cloned Pfu DNA polymerase PCR buffer (10 mM KCl, 10 mM (NH4)2SO4, 20 mM Tris-HCl (pH 8.8), 2 mM MgSO4, 0.1% (v/v) Triton X-100, and 100 μg/ml BSA), and 25 U/ml cloned Pfu DNA polymerase. Samples were diluted in 1× cloned Pfu DNA polymerase PCR buffer, and 1 μl of each diluted sample was added to 24 μl of the PCR cocktail. PCR amplifications were conducted on the RoboCycler 96 Temperature Cycler (Stratagene), using the following conditions: 96° C. for 45 s (1 cycle)/96° C. for 45 s; 60° C. for 45 s; 72° C. for 14 min. (35 cycles)/72° C. for 10 min. (1 cycle). PCR products (10 μl/lane) are run out on 1% agarose gels and PCR product bands visualized by ethidium bromide staining. […] When PCR enhancement is due to the presence of PEFs, rather than contaminating endogenous DNA polymerase activity, amplifications performed in the absence of […] yield no PCR product. Moreover, PCR amplifications performed in the absence of exogenous DNA template should yield no PCR product when the PEF sample lacks contaminating target DNA.

[3] = PCR cycling of dCTP in the presence of PEF or Pfu DNA polymerase, HPLC; conditions: 10 mM dCTP, 0.5 ng PEF/μl

B1: PEF: polymerase enhancing factor complex purified from Pyrococcus furiosus; predominant components P50 and P45 (protein)
chain 1: MLHHVKLIYATKSRKLVGKKIVXXXPGSIAALDVKACEGLIRHGAEVHAVMSEAATKIIHPYAWNLPTGNPVITEITGFIEHVELAGEHENKADLILVCPATANTISKIACGIDDTPVTTVVTTAFPHIPIMIAPAMHETMYRHPIVRENIERLKKLGVEFIGPRIEEGRAKVASIDEIVYRVIKKLHKKTLEGKRVLVTAGATREYIDPIRFITNASSGKMGVALAEEADFRGAVTLIRTKGSVKAFRIRKIKLKVETVEEMLSAIENELRSKKYDVVIMAAAVSDFRPKIKAEGKIKSGRSITIELVPXNPKIIDRIKEIQPNVFLVGFKAETSKEKLIEEGKRQIERAKADLVVGNTLEAFGSEENQVVLIGRDFTKELPKMKKRELAERIWDEIEKXLS
chain 2: MLLPDWKIRKEILIEPFSEESLQPAGYDLRVGREAFVKGKLIDVEKEGKVVIPPREYALILTLERIKLPDDVMGDMKIRSSLAREGVIGSFAWVDPGWDGNLTLMLYNASNEPVELRYGERFVQIAFIRLEGPARNPYRGNYQGSTRLAFSKRKKL
modifications: not fully specified; X: residue not identified in the source
notes: polymerase enhancing factor complex purified from Pyrococcus furiosus; predominant components P50 and P45
In the case of B1, the “Pi formed during reaction with dUTP” value [1] is reported as “no Pi was detected”, the “prevention of dUTP inhibition” value (Pfu DNA polymerase; added to PCR reactions containing dUTP) is reported as “completely prevented” and the “dUTP concentration whose inhibition is reversed” value (Pfu DNA polymerase; seven ng of PEF, as much as, data not shown) is reported as 20 µM. For the same molecule, the “excess PEF giving lower PCR product yield” value [2] was at least 900 ng/100 μl, the “PEF concentration range enhancing performance of Pfu DNA polymerase in PCR” value ([2]; 10,000-fold range) was 0.09-900 ng/100 μl and the “very low PEF concentration giving lower PCR product yield” value ([2]; listed as substantially homogeneous PEF) was under 9 pg/100 μl. For the same molecule, the “dCDP after PCR cycling in presence of PEF” value [3] was 19%, the “dCMP after PCR cycling in presence of PEF” value [3] was 8% and the “dCTP after PCR cycling in presence of PEF” value [3] was 73%. For the same molecule, the “dUTP after PCR cycling in presence of PEF” value [3] was “no detectable dUTP”.
